This assay concerns the target T1, huIL-27 (Homo sapiens, UniProt Q14213+Q8NEV9).
T1 construct: purchased R&D Systems
T1 sequence (Q8NEV9 29-243): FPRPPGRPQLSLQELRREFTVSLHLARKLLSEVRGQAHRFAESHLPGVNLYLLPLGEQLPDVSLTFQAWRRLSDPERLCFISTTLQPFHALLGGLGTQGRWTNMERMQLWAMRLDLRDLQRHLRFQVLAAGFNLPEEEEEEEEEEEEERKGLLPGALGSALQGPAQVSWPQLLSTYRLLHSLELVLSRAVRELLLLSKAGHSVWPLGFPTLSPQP
T1 sequence (Q14213 21-229): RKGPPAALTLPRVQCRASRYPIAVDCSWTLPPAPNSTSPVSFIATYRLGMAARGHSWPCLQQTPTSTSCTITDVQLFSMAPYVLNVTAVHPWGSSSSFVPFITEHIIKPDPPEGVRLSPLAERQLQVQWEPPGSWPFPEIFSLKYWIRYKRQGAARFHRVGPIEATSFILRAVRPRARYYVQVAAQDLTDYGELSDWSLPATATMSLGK
In words: Phospho-STAT3 (BIO-PLEX) neutralization of IL-27 by soluble receptors, mouse spleens. Type of assay: cell-based. The settings on record: ligand huIL-27 at EC90 (2 nM). The source says:
Whole mouse spleens were harvested from C57 B1/6 mice and washed two times with 1×PBS before being plated out at 2×10^5 cells/well in assay media (RPMI 1640 plus 10% fetal bovine serum) in 96-well, round-bottom tissue culture plates. Total human PBMC (peripheral blood mononuclear cells) were thawed from a frozen vial collected from a leukapherisis donation and washed two times with 1×PBS before being plated out at 10^6 cells/well in assay media in 96-well, round-bottom tissue culture plates. […] Following pre-incubation, treatments were added to the plates containing the cells and incubated together at 37° C. for 15 minutes.
Following incubation, cells were washed with ice-cold wash buffer (BIO-PLEX Cell Lysis Kit, BIO-RAD Laboratories, Hercules, Calif.) and put on ice to stop the reaction according to manufacturer's instructions. […]
Capture beads (BIO-PLEX Phospho-Stat3 Assay, BIO-RAD Laboratories) were combined with 50 μL of 1:1 diluted lysates and added to a 96-well filter plate according to manufacture's instructions (BIO-PLEX Phosphoprotein Detection Kit, BIO-RAD Laboratories). […] After the final wash, beads were resuspended in 125 μL/well of bead suspension buffer, shaken for 30 seconds, and read on an array reader (BIO-PLEX, BIO-RAD Laboratories) according to the manufacture's instructions. Data were analyzed using analytical software (BIO-PLEX MANAGER 3.0, BIO-RAD Laboratories). […]

In US20100093076A1, “SOLUBLE IL-27 RECEPTOR” (priority 2006, published 2010) one finds IC50 data, which are given here for 1 molecule.

B1: IL-27RAm(mFc1): Extracellular domain of mouse IL27RA fused to a wild type BALB/c mouse gamma2a constant region Fc tag (protein)
chain: MNRLERVALARLETPRLEGLLELELESLEMSLELELEGTRPRHGSPRGPRLEQCYSVGPRLEGILENCSWGLPRLEGDLEGLTPRPRVLEYHQSQKYHPRNRVWGLVKVPRSKQSWVTIPRRGLQFTMADKLELEIWGTQKGRPRLEWSSVSVASNLEGLTQMKPRDTPRQIFSQVASPISGLGLATLEGLATVQWAPRPRVWPRPRQKALETCQFRYKGLCQAGLAWTRLEGLPRQLEKTDGLETPRVGLMQNLEGLPRGTCYQVSGRCQVGLNGYPRWGGLWSSPRLESFQTPRFLEDPRGLDVWVSGTVCGLTSGKRAALELEVWKDPRRPRCVQVTYTVWFGAGDITTTQGLGLVPRCCKSPRVPRAWMGLWAVVSPRGNSTSWVPRPRTNLESLEVCLEAPRGLSAPRCDVGVSSADGSPRGIKVTWKQGTARGSPRLEGLYVVASPWAQDGDSLEDKLENWTRLEPRPRGNLESTLELEPRGGLFKGGVPRYRITVTAVYSGGLEAAAPRSVWGFRGLGLLEVPRLEAGPRAVWRLEPRDDPRPRGTPRVVALAWGGLVPRRHQLERGQATHYTFCIQSRGLESTVCRNVSSQTQTATLEPRNLEHSGSFKLEWVTVSTVALAGQGPRPRGPRDLESLEHLEPRDNRIRWKALEPRWFLESLEWGLELELEMGCGLESLEASTRCLEQARCLEHWRHKLELEPRQWIWGLRVPRDPRANSNSGQPRYIKGLVSLEPRQPRPRKDGPRILEGLVGLGLVGLLEQPRVVGLSPRKASAPRIYSGYGLKHFLEPRTPRGLGLLEGLELEV
modifications: left off: a dimerising Fc or GST
notes: Extracellular domain of mouse IL27RA fused to a wild type BALB/c mouse gamma2a constant region Fc tag
B1: the IC50 came out at 9.3 nM.

The term IC50 denotes the concentration needed to halve the response being measured.
